Results from PMC3568146, “Very Late Antigen-4 (α4β1 Integrin) Targeted PET Imaging of Multiple Myeloma” (PLoS ONE, 2013).
Entries after “also recorded” stand apart in the source; their conditions may differ. Read-outs that look alike come from different tables or passages of the source.

Columns and labels:
[1] = target: T1, VLA-4 (α4β1 integrin) on 5TGM1 murine myeloma cells (Mus musculus, UniProt P09055+Q00651); test: In vitro saturation binding assay on 5TGM1 whole cells; conditions: tracer 0.5–15.5 nM, 2 h at 4°C, 1 mM Mn2+, N = 3
T1 construct: was incubated with ∼250,000 5TGM1 (∼ 0.41 mg protein) whole cells; endogenous in cells; host or cells: 5TGM1 murine myeloma cells (whole cells)
T1 sequence (Q00651 41-1039): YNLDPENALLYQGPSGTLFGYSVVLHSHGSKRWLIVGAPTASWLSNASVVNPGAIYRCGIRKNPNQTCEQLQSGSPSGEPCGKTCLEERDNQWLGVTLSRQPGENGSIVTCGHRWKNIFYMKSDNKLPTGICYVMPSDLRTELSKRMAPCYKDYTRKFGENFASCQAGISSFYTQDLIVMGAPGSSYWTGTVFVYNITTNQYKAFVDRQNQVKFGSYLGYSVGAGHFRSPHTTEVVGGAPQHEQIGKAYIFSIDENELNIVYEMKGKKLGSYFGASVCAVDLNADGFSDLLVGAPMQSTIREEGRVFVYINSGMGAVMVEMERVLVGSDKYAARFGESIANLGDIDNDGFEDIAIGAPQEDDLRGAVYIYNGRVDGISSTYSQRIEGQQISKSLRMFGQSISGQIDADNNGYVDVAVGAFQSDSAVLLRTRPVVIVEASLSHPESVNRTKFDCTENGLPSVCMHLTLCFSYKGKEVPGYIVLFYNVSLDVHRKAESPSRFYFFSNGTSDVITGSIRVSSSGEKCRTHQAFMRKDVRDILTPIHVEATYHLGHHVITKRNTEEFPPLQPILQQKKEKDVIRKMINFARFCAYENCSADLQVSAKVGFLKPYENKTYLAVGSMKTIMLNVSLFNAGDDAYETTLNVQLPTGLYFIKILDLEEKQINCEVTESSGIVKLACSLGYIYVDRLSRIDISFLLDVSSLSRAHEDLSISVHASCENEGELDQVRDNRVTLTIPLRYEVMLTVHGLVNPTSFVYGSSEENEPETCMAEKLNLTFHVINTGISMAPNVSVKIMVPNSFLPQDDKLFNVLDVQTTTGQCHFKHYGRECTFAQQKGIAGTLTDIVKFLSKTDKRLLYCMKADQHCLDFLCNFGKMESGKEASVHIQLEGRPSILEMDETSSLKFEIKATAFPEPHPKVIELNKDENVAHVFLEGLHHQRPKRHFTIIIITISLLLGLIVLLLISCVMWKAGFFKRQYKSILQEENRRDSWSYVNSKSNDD
T1 sequence (P09055 21-798): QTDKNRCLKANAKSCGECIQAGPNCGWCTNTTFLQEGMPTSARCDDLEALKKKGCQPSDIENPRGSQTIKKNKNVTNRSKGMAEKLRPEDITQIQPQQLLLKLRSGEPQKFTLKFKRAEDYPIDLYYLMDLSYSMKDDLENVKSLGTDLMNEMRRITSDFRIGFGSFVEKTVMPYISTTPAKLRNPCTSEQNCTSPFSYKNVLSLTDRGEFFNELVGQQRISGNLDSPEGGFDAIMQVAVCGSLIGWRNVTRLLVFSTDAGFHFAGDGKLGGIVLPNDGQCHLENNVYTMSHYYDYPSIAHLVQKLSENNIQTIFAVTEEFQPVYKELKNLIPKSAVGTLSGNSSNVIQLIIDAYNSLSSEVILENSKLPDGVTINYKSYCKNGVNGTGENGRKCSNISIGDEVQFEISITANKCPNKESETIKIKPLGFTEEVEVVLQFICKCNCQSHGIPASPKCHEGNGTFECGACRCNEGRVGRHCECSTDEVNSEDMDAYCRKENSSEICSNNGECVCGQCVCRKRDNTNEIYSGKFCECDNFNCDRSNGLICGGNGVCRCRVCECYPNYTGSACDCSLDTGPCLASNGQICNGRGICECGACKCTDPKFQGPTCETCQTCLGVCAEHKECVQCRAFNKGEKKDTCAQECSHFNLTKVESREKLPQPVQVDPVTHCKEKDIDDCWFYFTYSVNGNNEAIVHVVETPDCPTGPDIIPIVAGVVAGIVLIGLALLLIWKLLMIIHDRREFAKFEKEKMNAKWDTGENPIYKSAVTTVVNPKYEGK
Description: For saturation binding experiments, ^64Cu-CB-TE1A1P-LLP2A (0.5–15.5 nM) was incubated with ∼250,000 5TGM1 (∼ 0.41 mg protein) whole cells in 1.5 mL microfuge tubes for 2 h at 4°C in a total volume of 500 µL of binding medium (phosphate buffered saline [PBS], 0.1% bovine serum albumin [BSA] and 1 mM Mn^2+). The reaction tubes were put on a slow moving rotor during the 4°C incubation. After the incubation, samples were centrifuged at 1,500 rpm for 5 min, reaction buffer was removed by vacuum aspiration and the cells were washed two times with ice cold PBS. Non-specific binding was determined by conducting the assay in the presence of an excess (∼200 fold) unlabeled LLP2A. The radioactivity in the cell pellets was measured in a well counter (Packard II gamma counter). The specific binding was obtained by the subtraction of non-specific binding from total binding. The dissociation constant (Kd) and receptor density (Bmax) were estimated from the non-linear fitting of the specific binding versus the concentration of ^64Cu-CB-TE1A1P-LLP2A using Prism software (GraphPad, San Diego, CA).
The in vitro binding affinity of ^64Cu-CB-TE1A1P-LLP2A was investigated by determining the equilibrium dissociation constant (Kd) and the maximum specific binding (Bmax) of the radiolabeled conjugate to 5TGM1 cells in saturation binding assays. […]

[2] = Small animal PET/CT imaging in KaLwRij mice bearing 5TGM1 tumors; type: in vivo, mouse; conditions: KaLwRij, mouse, iv, total radioactivity
Description: (§1) KaLwRij mice (from Dr. Claire M. Edwards, Vanderbilt University Medical Center Cancer Biology, Nashville, TN) were housed in ventilated cage racks and allowed food and water. 5TGM1 cells in log phase growth were prepared for injection by precipitation in a centrifuge followed by a wash step with sterile endotoxin-free PBS. Finally, the cells were re-suspended in endotoxin-free PBS at a concentration of 1×10^6 cells/mL and injected with or without matrigel, respectively, in the nape of the neck subcutaneously (s.c.) or intraperitoneally (i.p.) in a 100 µL volume in 3–5 week old mice. The tumors were allowed to grow for an average of 10 d.
(§2) Prior to small animal PET/CT imaging, mice were injected intravenously (tail vein) with ^64Cu-CB-TE1A1P-LLP2A (0.9 MBq (SA: 37 MBq/µg)). At 2 h post injection, mice were anaesthetized with 1–2% isoflurane and imaged with small animal PET (Focus 220 or Inveon (Siemens Medical Solutions, Knoxville,TN)), while the CT images were acquired with the Inveon. Static images were collected for 30 min and co-registered using the Inveon Research Workstation (IRW) software (Siemens Medical Solutions, Knoxville,TN). PET images were re-constructed with the maximum a posteriori (MAP) algorithm. The analysis of the small animal PET images was done using the IRW software. Regions of interest (ROI) were selected from PET images using CT anatomical guidelines and the activity associated with them was measured with IRW software. Maximum standard uptake values (SUVs) for both experiments were calculated using SUV = ([nCi/mL]x[animal weight (g)]/[injected dose (nCi)]). A set of mice was also imaged at 24 h post injection.
(§3) To test the ability of ^64Cu-CB-TE1A1P-LLP2A to image MM, small animal PET/CT imaging was conducted in KaLwRij mice bearing 5TGM1 murine myeloma tumors. The following i.p. and s.c. 5TGM1 models were used for the proof-of-principle imaging studies: 1) a non-matrigel assisted s.c. (plasmacytoma) tumor in the flank of the mouse (Figure 4B); 2) a matrigel assisted s.c. tumor in the flank of the mouse (Figure 4C); and 3) tumor cells injected in the peritoneal (i.p.) cavity (Figure 4D). Figure 4 contains […] (B-D) representative maximum intensity projection (MIP) small animal PET images using ^64Cu-CB-TE1A1P-LLP2A (0.9 MBq, 0.05 µg, 27 pmol, SA: 37 MBq/µg) at 2 h post injection in the various models compared to a non-tumor-bearing control mouse (Figure 4A). […] The SUV of the tumor shown in Figure 4D was not determined due to the large tumor size and overlap with the spleen and bladder. The heterogeneous distribution of the imaging agent in Figure 4D likely corresponds with the heterogeneity of the tumor mass. The uptake of ^64Cu-CB-TE1A1P-LLP2A in i.p. tumors was determined to be 14.9±2.6%ID/g by post PET biodistribution (2 h post injection). […] We are currently investigating the imaging of myeloma induced spleen pathology (splenomegaly) in orthotopic (i.v.) 5TGM1 mouse models of MM.

[3] = system: 5TGM1 tumors; test: as above; type: in vivo, mouse; conditions: 2 h post injection
Description: as §1, §2, §3

[4] = system: 5TGM1 cells; test: In vitro cell uptake assay, 5TGM1 cells; type: cell-based, mouse
Description: (§4) Cell uptake assays were performed in murine 5TGM1 and human RPMI-8226 myeloma cells using ^64Cu-CB-TE1A1P-LLP2A to determine the sum of cell internalized and surface-bound fractions. Cells were grown in Iscoves MDM until 60−75% confluent, harvested by mechanical dissociation, and re-suspended in the binding medium (phosphate buffered saline [PBS], 0.1% bovine serum albumin [BSA] and 1 mM Mn^2+) in 1.5 mL microfuge tubes. A solution of ^64Cu-CB-TE1A1P-LLP2A (0.1 nM) was added to the cell suspension. The samples were incubated for 60 min in a cell incubator (37°C, 5% CO2). To determine the in vitro VLA-4 binding specificity of ^64Cu-CB-TE1A1P-LLP2A, samples were co-incubated with ∼200-fold excess of the unlabeled ligand, LLP2A. After incubation, the samples were centrifuged at 1,500 rpm for 5 min, and the radioactive medium was removed. Cell pellets were rinsed with ice cold binding buffer (500 µL) and centrifuged at 1,500 rpm for 3 min (2 X). The radioactivity in cell pellets was measured in a well counter (Packard II gamma counter).

[5] = Tissue biodistribution in 5TGM1 tumor-bearing KaLwRij mice; type: in vivo, mouse; conditions: mouse, iv, 0.01 ug, total radioactivity, 2 h post injection, s.c. 5TGM1 tumor KaLwRij mice, mean±SD, N = 4
Description: as §1
(§5) 5TGM1 tumor bearing mice were sacrificed at 2 or 24 h after the injection of the radiopharmaceutical, ^64Cu-CB-TE1A1P-LLP2A. Blood, marrow, fat, heart, stomach, intestines, lungs, liver, spleen, kidneys, muscle, bone, pancreas, and tumor were harvested, weighed, and counted in the γ-counter. For the in vivo blocking studies, an additional group of mice was injected with the radiopharmaceutical premixed with ∼200-fold excess of LLP2A to serve as a blocking agent and sacrificed at the respective time point. The percent injected dose per gram of tissue (%ID/g) was determined by decay correction of the radiopharmaceutical for each sample normalized to a standard of known weight, which was representative of the injected dose.
(§6) Figure 3 Tissue biodistribution of ^64Cu-CB-TE1A1P-LLP2A in 5TGM1 s.c. tumor mice. Biodistribution of ^64Cu-CB-TE1A1P-LLP2A in 5TGM1 s.c. tumor mice (black bars). The open bars represent biodistribution in the presence of non-radioactive blocking agent (∼ 200 fold excess LLP2A). Mice were injected with ^64Cu-CB-TE1A1P-LLP2A (0.01 µg, 0.2 MBq, SA: 37 MBq/µg) and sacrificed at 2 h post injection. N = 4 mice/group.

[6] = system: 5TGM1 tumors; test: as above; type: in vivo, mouse; conditions: 2 h, co-administered ~200-fold excess cold LLP2A, p<0.05, N = 4
Description: as §1, §5, §6

[7] = system: RPMI-8226 cells; test: In vitro cell uptake assay, RPMI-8226 cells; type: cell-based, human; conditions: 0.1 nM tracer, 37°C, 60 min, 1 mM Mn2+, ~200-fold excess LLP2A, P<0.0001
Description: as §4
Binding of ^64Cu-CB-TE1A1P-LLP2A was evaluated in human MM cell line RPMI-8226 in vitro.

## Cc1ccccc1NC(=O)Nc1ccc(CC(=O)N[C@@H](CCCCNC(=O)/C=C/c2cccnc2)C(=O)N[C@@H](CCCC(=O)O)C(=O)NC2(C(=O)NCCOCCOCCNC(=O)CCC(=O)NCCOCCOCCNC(=O)CCC(=O)N[C@@H](CCCCNC(=O)CN3CCCN4CCN(CCCN(CP(=O)(O)O)CC4)CC3)C(N)=O)CCCCC2)cc1 [64Cu-CB-TE1A1P-LLP2A, metal not drawn]
[1]
  Bmax (maximum specific binding, receptor density): 136 pmol/mg
[2]; spleen, 0.05 ug, 2 h post injection, 5TGM1 tumor bearing mice, read-out: Spleen SUV, tumor bearing mice
  SUV at 2 h: 3.3 SUV
[2]; tumor and muscle, 0.9 MBq, 2 h post injection, calculated from MIP image SUVs
  tissue to tissue ratio at 2 h: 28 ± 6
[2]; tumor and muscle, 0.9 MBq, 24 h post injection, calculated from MIP image SUVs
  tissue to tissue ratio at 24 h: 161 ± 41
[2]; tumor, 0.05 ug, 2 h post injection, 0.9 MBq, 0.05 µg, 27 pmol, 5TGM1 tumors, mean±SD, N = 4, read-out: Tumor SUV (averaged maximum SUV from MIP PET images), no block
  SUV at 2 h: 6.2 ± 1.1 SUV
[2]; tumor, 2 h post injection, ~200-fold excess LLP2A, mean±SD, N = 4, P<0.05, read-out: Tumor SUV in the presence of blocking agent
  SUV at 2 h: 2.3 ± 0.4 SUV
[3]; non-tumor KaLwRij control mouse
  Spleen SUV, non-tumor bearing mouse: 2.2
[3]; ~200-fold excess LLP2A, P<0.05
  Reduction in tumor SUV in the presence of blocking agent: 3 fold
[3]; representative mouse, Figure 4B
  Tumor SUV, early stage non-palpable s.c. 5TGM1 tumor without matrigel: 2.24
[3]; representative mouse, Figure 4C
  Tumor SUV, matrigel assisted s.c. 5TGM1 tumor: 6.2
[4]; 0.1 nM tracer, 60 min, 37°C, PBS/0.1% BSA/1 mM Mn2+, with and without ~200-fold excess LLP2A, P<0.0001
  Cell uptake (internalized + surface-bound), block vs. non-block: receptor specific uptake; also recorded: significantly different; also recorded: significantly reduced
[4]; without Mn2+, data not shown
  Cell uptake in the absence of receptor activating cation Mn2+: much lower binding
[5]; i.v., 0.01 µg, 0.2 MBq, read-out: Tumor uptake (s.c. 5TGM1)
  tissue uptake at 2 h: 12 ± 4.5 %ID/g
[5]; spleen, read-out: Spleen uptake
  tissue uptake at 2 h: 8.8 ± 1 %ID/g
[6]
  Uptake in tumor, spleen and bone in the presence of blocking agent: significantly reduced
[7]
  Cell uptake in RPMI-8226 cells, with vs. without excess LLP2A: significantly reduced; also recorded: significantly blocked
